Experimental data: patent publication US8450464 (Bristol-Myers Squibb, dated 2013)

Tests used:
human CXCR4 [1] = target: T1, human CXCR4 (human, UniProt P61073 1-352); assay: competition flow cytometry on CEM cells: unlabeled antibody titrated against a constant concentration of FITC-labeled F9, fluorescent geometric mean; unit from the axis 'Ab Concentration in nM'
human CXCR4 [2] = target: T1, human CXCR4; assay: flow cytometry titration on CEM cells (native human CXCR4), FITC anti-human IgG secondary, MFI; unit from the axis 'Conc in nM'
Experimental: (§1) The antibodies were then mixed with CEM cells and allowed to bind before being detected with a FITC-conjugated anti-human IgG secondary antibody. The cells were then analyzed by fluorescent cytometry.

human CXCR4 [3] = target: T1, human CXCR4; assay: flow cytometry on CEM cells, FITC anti-human IgG detection
Experimental: as §1

human CXCR4 [4] = target: T1, human CXCR4; assay: cell-based or functional assay
human CXCR4 [5] = target: T1, human CXCR4; assay: radioligand competition on CEM cells; competitor 100 pM 125I-SDF-1
Experimental: The anti-CXCR4 antibodies were serially diluted 1:3 to yield a range of concentrations from 300 nM to 137 pM. […] An irrelevant antibody of the same isotype was used as a negative control.

human CXCR4 [6] = target: T1, human CXCR4; assay: flow cytometry titration on CEM cells (native human CXCR4), FITC anti-human IgG secondary, MFI; unit from the axis 'Conc in nM'; the curve is still rising at the highest concentration, no upper plateau
Experimental: as §1

human CXCR4 [7] = target: T1, human CXCR4; assay: competition flow cytometry on CEM cells: unlabeled antibody titrated against a constant concentration of FITC-labeled F9, fluorescent geometric mean; unit from the axis 'Ab Concentration in nM'; the fitted value lies above the highest concentration shown (about 300 nM), inhibition is only partial
Experimental: To determine the ability of a panel of anti-CXCR4 antibodies to compete for binding to CXCR4, competition studies were performed. […] The mixture of antibodies was then added to CEM cells and allowed to bind.

T1 sequence (P61073 whole entry): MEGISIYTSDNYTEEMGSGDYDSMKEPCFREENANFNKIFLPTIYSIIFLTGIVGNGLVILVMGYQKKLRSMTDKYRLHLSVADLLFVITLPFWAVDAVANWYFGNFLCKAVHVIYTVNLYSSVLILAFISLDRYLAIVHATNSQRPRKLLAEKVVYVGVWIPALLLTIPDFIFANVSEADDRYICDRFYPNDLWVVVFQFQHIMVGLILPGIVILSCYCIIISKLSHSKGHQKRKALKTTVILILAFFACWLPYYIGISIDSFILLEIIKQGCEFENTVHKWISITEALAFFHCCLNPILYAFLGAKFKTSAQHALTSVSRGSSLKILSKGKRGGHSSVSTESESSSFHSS

EC50 (human CXCR4 [1]) [nM] | EC50 (human CXCR4 [2]) [nM] | EC50 (human CXCR4 [3]) [nM] | EC50 for inhibition of SDF-1-induced calcium flux in CEM cells (human CXCR4 [4]) [nM] | EC50 (human CXCR4 [5]) [nM] | EC50 (human CXCR4 [6]) [nM] | EC50 (human CXCR4 [7]) [nM] | Molecule
102 |  |  |  |  |  |  | murine monoclonal anti-CXCR4 antibody 12G5
59.2 | 79.9 | 80 | 0.57 | 28.6 |  |  | anti-CXCR4 human monoclonal antibody D1 (antibody, V domains shown, Tested as full-length antibody) VH: EVQLVQSGGGLVQPGGSLRLSCAAAGFTFSSYSMNWVRQAPGKGLEWVSYISSRSKTIYYADSVKGRFTISRDNARNSLYLQMNSLRDEDTAVYYCARDYGGQPPYYYYYGMDVWGQGTTVTVSS VL: VIWVTQSPSSLSASVGDRVTITCRTSQGISSWLAWYQQKPEKAPELLIYAASSLQSGVPSRFSGSGSGTDFTLTISSLQPEDFATYYCQQYNSYPRTFGQGTKVEIK
 |  | 290 |  |  | 290 | 469 | anti-CXCR4 human monoclonal antibody E2 (antibody, V domains shown, Tested as full-length antibody) VH: EVQLVQSGGGLVQPGGSLRLSCAAAGFTFSSYSMNWVRQAPGKGLEWVSYISSRSRTIYYADSVKGRFTISRDNAKNSLYLQMNSLRDEDTAVYYCARDYGGQPPYHYYYGMDVWGQGTTVTVSS VL: EIVLTQSPSSLSASVGDRVTITCRASQGISNWLAWYQQKPEKAPKSLIYAASSLQSGVPSRFSGSGSGTDFTLTISSLQPEDFATYYCQQYNSYPRTFGQGTKVEIK
